Experimental data: patent publication US11795460B2, “Compositions and methods for TTR gene editing and treating ATTR amyloidosis” (Intellia Therapeutics, Inc., priority 2017, dated 2023)
Strand notation (5' to 3'): a small letter for the sugar, then the base; units joined by * are phosphorothioate-linked, units joined directly phosphodiester-linked; [ ] holds rarer units or linkages, { } end groups; capitals alone tell only the bases. m = 2'-O-methyl; r = 2'-OH (RNA)

B1: G000481: TTR sgRNA modified sequence, Human, SEQ ID No. 88; guide sequence of CR003345 (nucleic acid)
guide: mU*mC*mU*rArGrArArCrUrUrUrGrArCrCrArUrCrArGrGrUrUrUrUrArGrAmGmCmUmAmGmAmAmAmUmAmGmCrArArGrUrUrArArArArUrArArGrGrCrUrArGrUrCrCrGrUrUrArUrCrAmAmCmUmUmGmAmAmAmAmAmGmUmGmGmCmAmCmCmGmAmGmUmCmGmGmUmGmCmU*mU*mU*mU
B2: G000502: TTR Cyno specific sgRNA modified sequence, SEQ ID No. 114; guide sequence of CR000689; cross homologous between mouse and cyno (nucleic acid)
guide: mA*mC*mA*rCrArArArUrArCrCrArGrUrCrCrArGrCrGrGrUrUrUrUrArGrAmGmCmUmAmGmAmAmAmUmAmGmCrArArGrUrUrArArArArUrArArGrGrCrUrArGrUrCrCrGrUrUrArUrCrAmAmCmUmUmGmAmAmAmAmAmGmUmGmGmCmAmCmCmGmAmGmUmCmGmGmUmGmCmU*mU*mU*mU

Legend:
[1] = test system: TTR protein amyloid deposition; test: Semi-quantitative immunohistochemistry of TTR in stomach, colon, sciatic nerve, DRG of V30M mice; format: in vivo, mouse; conditions: 8 weeks post-treatment, single 1 mg/kg dose
Description: A well-established humanized transgenic mouse model of hereditary ATTR amyloidosis that expresses the V30M pathogenic mutant form of human TTR protein was used in this Example. This mouse model recapitulates the TTR deposition phenotype in tissues observed in ATTR patients, including within the peripheral nervous system and gastrointestinal (GI) tract (See Santos et al., Neurobiol Aging. 2010 February; 31(2):280-9).
Mice (aged approximately 4-5 months) were dosed with LNP formulations prepared using the cross-flow and TFF procedures as described in Example 1. The LNPs were formulated with an N:P ratio of 6.0 and contained Lipid A, Cholesterol, DSPC, and PEG2k-DMG in a 50:38:9:2 molar ratio, respectively. The LNPs contained Cas9 mRNA (SEQ ID NO: 1) and either G000481 (“G481”) or a non-targeting control guide G000395 (“G395”; SEQ ID NO: 273), in a 1:1 ratio of gRNA:mRNA by weight.
Mice were injected via the lateral tail vein as described in Example 1 with a single 1 mg/kg (of total RNA content) dose of LNP with an n=10/group. […] Human TTR protein levels were measured in serum and cerebrospinal fluid (CSF) by ELISA as previously described by Butler et al., Amyloid. […] Other tissues (stomach, colon, sciatic nerve, dorsal root ganglion (DRG)) were collected and processed for semi-quantitative immunohistochemistry as previously described by Gonsalves et al., Amyloid. […]

mouse TTR = test: Serum mouse TTR ELISA in mice dosed with LNP formulations (Table 28); format: in vivo; conditions: wild type CD-1 mice; 1, 0.3, 0.1, 0.03, or 0.01 mg/kg; FIG. 15B
Description: Blood was collected and the serum was isolated as indicated. The total mouse TTR serum levels were determined using a Mouse Prealbumin (Transthyretin) ELISA Kit (Aviva Systems Biology, Cat. OKIA00111); rat TTR serum levels were measured using a rat specific ELISA kit (Aviva Systems Biology catalog number OKIA00159); human TTR serum levels were measured using a human specific ELISA kit (Aviva Systems Biology catalog number OKIA00081); each according to manufacture's protocol. Briefly, sera were serial diluted with kit sample diluent to a final dilution of 10,000-fold, or 5,000-fold when measuring human TTR in mouse sera. […] The absorbance of the contents was measured on the Spectramax M5 plate reader with analysis using SoftmaxPro version 7.0 software. Serum TTR levels were quantitated off the standard curve using 4 parameter logistic fit and expressed as ug/mL of serum or percent knockdown relative control (vehicle treated) animals.
In separate experiments using wild type CD-1 mice, an LNP formulation comprising guide G000502, which is cross homologous between mouse and cyno, was tested in a dose response study. […] Liver editing results were determined using primers designed to amplify the region of interest for NGS analysis. […]

Molecule | Reduction in TTR staining across the treated tissues [1] [%] | Serum mouse TTR levels, dose response (mouse TTR)
B1 | ≥ 85 | –
B2 | – | A dose response for both editing and serum TTR levels was evident
